Experimental findings from paper PMC5993538, “The plant-specific transcription factors CBP60g and SARD1 are targeted by a Verticillium secretory protein VdSCP41 to modulate immunity” are described below.

This data set deals with T1, GST-CBP60g (Arabidopsis thaliana, UniProt F4K2R6 1-563).
T1 sequence: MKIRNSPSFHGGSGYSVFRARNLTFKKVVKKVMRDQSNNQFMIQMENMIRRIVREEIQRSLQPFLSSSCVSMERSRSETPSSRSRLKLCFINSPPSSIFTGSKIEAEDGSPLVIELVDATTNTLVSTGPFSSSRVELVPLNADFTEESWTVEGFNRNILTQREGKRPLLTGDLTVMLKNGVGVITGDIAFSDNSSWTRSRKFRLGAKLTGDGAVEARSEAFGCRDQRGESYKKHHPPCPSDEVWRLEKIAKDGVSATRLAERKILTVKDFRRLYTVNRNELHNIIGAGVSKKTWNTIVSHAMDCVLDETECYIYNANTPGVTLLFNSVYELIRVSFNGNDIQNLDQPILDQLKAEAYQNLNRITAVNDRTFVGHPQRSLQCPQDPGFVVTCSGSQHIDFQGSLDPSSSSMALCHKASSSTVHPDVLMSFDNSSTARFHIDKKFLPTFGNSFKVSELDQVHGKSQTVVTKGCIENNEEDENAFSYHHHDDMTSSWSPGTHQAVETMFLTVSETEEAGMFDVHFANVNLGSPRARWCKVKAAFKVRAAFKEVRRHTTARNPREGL
Kind of data set: EMSA; no effector; signal reduced by 150x unlabeled probe; 10 mM Tris-HCl pH 7.5, 50 mM KCl, 1 mM DTT, 50 ng poly[dI-dC], 20 ul, room temperature 30 min; 2 fmol probe, 4 ug GST-CBP60g; 5% native PAGE. The following applies: protein: recombinant; tags: N-terminal GST (pGEX-6p-1); label: 32P (5' end, T4 PNK); blunt. Background: Mobility shift assays separate free from complexed probe on a gel.

B1: ICS1 promoter 60-bp probe (dsDNA)
DNA 1: TGTGTAATTTGGTGGTTATTTCATAGAAATTTTGGGGAAATTGTTGCACCTCTCCACTCT
DNA 2: AGAGTGGAGAGGTGCAACAATTTCCCCAAAATTTCTATGAAATAACCACCAAATTACACA
Turning to B1, the binding result is “binds”.
